The text below walks through data of patent publication US12383631.

Experiment [1] has as its target T1, IL-18 receptor (IL-18Rα/IL-18Rβ) on cells (HEK-Blue IL18R reporter cells, NK-92, KG-1) (human) (UniProt Q13478).
T1 sequence (looked up) 1: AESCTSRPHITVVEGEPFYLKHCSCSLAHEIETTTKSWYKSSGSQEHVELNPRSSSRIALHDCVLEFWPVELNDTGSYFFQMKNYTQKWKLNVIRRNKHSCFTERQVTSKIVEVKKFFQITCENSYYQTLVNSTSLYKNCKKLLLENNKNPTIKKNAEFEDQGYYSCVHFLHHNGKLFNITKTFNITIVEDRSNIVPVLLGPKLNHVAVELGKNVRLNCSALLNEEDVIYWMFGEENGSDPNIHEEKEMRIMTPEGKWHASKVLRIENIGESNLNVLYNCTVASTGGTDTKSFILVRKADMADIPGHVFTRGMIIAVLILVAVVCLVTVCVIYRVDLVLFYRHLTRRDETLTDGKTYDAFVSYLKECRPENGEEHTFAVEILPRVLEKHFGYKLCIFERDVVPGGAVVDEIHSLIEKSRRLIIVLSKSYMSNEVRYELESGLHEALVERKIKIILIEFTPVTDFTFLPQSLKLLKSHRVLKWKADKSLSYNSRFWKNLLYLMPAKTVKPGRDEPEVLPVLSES
T1 sequence (looked up) 2: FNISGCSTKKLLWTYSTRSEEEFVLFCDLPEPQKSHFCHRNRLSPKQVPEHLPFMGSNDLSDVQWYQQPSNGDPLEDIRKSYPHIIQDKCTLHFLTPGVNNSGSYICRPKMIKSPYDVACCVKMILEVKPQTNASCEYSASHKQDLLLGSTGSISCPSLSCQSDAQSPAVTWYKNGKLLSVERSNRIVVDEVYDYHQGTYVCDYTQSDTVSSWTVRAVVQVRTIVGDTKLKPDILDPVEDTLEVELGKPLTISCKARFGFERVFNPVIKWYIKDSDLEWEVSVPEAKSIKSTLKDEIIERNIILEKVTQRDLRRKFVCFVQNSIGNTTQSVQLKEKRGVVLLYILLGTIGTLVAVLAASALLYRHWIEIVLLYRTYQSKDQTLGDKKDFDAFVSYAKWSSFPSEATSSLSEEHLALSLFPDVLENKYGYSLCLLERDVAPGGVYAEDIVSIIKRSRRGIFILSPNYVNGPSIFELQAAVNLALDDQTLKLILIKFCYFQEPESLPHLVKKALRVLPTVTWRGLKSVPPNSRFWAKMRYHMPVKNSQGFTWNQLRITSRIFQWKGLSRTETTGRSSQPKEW
As to the kind of experiment: cell-based or functional assay.

In experiment [2] the target is T2, human IL-18BP-His (human), O95998.
T2 chain: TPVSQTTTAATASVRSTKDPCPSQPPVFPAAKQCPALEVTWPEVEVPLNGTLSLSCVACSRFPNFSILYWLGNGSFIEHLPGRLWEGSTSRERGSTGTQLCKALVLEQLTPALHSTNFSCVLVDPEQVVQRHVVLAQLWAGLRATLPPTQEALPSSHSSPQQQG
As to the kind of experiment: AlphaLISA of free IL-18BP. As to conditions: remark: other sources report otherwise.

Changes are numbered by the printed parent chain. Names may count otherwise.

B1: Composition F (Trastuzumab/Herceptin conjugated to IL-18 polypeptide of SEQ ID NO: 60) (protein, part only; not given: trastuzumab heavy and light chains, part only)
chain: YFGKLKSKLSVIRNLNDQVLFIDQGNRPLFEDMTDSDQRDNAPRTIFIISMYADSQPRGMAVTISVKCEKISTLSCENKIISFKEMNPPDNIKDTKSDIIFFQRSVPGHDNKMQFESSSYEGYFLACEKERDLFKLILKKEDELGDRSIMFTVQNED
modifications: chemical linker to the antibody; site not stated
Consider B1, for which the EC50, IFNγ secretion, NK92 cells in experiment [1] stood at 0.064 nM.

B2: IL-18 polypeptide of SEQ ID NO: 35 (Y01G, F02A, E06K, M51G, K53A, D54A, S55A, T63A), Q14116 37-193 (ligand)
chain: B1 chain with Y1G, F2A, Q38C, M51G, D54A, S55A, T63A
What is called Kd is the concentration at which binding is half-saturated. A low value points to higher affinity. As to B2, the Kd in experiment [2] is 969 nM. This counts as sub-micromolar.
